{
  "source": "patent US20240261333A1",
  "about": "“NOVEL TARGETS FOR ENHANCING ANTI-TUMOR IMMUNITY” (THE BROAD INSTITUTE, INC., priority 2021, published 2024)",
  "key": {"IL13RA2 (human)": {"molecular_target": "IL13RA2 (human) (UniProt Q14627)", "sequence (Q14627 27-380 limits assumed)": "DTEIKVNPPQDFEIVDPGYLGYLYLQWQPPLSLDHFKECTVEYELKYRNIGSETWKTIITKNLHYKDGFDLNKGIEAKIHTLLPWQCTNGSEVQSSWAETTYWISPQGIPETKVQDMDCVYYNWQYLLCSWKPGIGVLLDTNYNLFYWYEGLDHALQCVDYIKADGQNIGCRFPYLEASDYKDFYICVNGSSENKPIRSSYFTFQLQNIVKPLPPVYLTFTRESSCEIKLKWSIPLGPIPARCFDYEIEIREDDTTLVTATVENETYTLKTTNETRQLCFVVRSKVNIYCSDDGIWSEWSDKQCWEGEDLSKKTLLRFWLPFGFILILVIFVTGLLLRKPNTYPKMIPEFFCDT", "test": "control IP with IgG, lysate of cells with N-FLAG B3GNT2, mass spectrometry"}, "LGALS7B (human)": {"molecular_target": "LGALS7B (human) (UniProt P47929)", "sequence (P47929 whole entry)": "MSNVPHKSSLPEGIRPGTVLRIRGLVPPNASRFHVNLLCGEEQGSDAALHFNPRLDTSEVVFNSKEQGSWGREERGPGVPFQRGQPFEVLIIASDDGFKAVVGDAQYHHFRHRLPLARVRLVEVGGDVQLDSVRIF", "test": "control IP with IgG, lysate of cells with N-FLAG B3GNT2, mass spectrometry"}, "HNRNPM (human)": {"molecular_target": "HNRNPM (human) (UniProt P52272)", "test": "control IP with IgG, lysate of cells with N-FLAG B3GNT2, mass spectrometry"}, "DDX1 (human)": {"molecular_target": "DDX1 (human) (UniProt Q92499)", "test": "control IP with IgG, lysate of cells with N-FLAG B3GNT2, mass spectrometry"}, "RPL38 (human)": {"molecular_target": "RPL38 (human) (UniProt P63173)", "test": "control IP with IgG, lysate of cells with N-FLAG B3GNT2, mass spectrometry"}, "TPM3 (human)": {"molecular_target": "TPM3 (human) (UniProt P06753)", "test": "control IP with IgG, lysate of cells with N-FLAG B3GNT2, mass spectrometry"}, "GEMIN4 (human)": {"molecular_target": "GEMIN4 (human) (UniProt P57678)", "test": "control IP with IgG, lysate of cells with N-FLAG B3GNT2, mass spectrometry"}, "GBF1 (human)": {"molecular_target": "GBF1 (human) (UniProt Q92538)", "test": "control IP with IgG, lysate of cells with N-FLAG B3GNT2, mass spectrometry"}, "DHX9 (human)": {"molecular_target": "DHX9 (human) (UniProt Q08211)", "sequence (Q08211 whole entry)": "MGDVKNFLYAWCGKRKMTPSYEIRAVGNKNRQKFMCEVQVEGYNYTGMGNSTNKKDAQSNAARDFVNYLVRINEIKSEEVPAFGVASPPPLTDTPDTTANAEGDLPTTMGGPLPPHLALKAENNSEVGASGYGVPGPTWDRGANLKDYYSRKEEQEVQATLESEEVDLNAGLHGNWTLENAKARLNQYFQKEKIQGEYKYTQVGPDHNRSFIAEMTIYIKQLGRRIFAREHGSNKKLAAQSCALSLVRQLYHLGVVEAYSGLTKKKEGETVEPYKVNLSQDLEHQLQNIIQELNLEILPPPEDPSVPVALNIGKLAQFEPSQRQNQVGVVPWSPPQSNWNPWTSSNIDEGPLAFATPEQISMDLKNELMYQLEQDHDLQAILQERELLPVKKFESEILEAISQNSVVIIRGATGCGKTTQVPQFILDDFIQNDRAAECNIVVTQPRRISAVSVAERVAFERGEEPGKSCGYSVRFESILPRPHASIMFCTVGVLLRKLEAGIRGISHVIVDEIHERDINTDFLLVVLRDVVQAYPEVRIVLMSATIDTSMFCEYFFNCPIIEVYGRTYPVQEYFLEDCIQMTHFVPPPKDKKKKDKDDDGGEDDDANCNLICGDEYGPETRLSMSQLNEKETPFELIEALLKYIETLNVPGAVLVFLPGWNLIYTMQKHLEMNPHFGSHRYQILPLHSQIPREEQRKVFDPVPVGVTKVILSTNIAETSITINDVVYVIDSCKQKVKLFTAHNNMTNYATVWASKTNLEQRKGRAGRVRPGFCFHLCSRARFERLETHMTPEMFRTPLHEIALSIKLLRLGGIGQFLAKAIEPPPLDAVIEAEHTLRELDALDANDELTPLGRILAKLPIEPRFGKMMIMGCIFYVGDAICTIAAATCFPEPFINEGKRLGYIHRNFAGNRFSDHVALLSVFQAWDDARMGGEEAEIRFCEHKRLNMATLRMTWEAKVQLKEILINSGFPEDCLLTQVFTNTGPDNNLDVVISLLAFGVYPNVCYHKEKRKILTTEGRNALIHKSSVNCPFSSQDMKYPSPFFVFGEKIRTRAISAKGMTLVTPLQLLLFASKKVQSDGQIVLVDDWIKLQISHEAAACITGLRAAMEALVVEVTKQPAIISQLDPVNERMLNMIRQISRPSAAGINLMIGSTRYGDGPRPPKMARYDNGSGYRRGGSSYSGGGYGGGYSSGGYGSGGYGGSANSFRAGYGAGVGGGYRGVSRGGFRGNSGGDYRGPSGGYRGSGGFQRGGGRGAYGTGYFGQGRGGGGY", "test": "control IP with IgG, lysate of cells with N-FLAG B3GNT2, mass spectrometry"}, "PPFIBP1 (human)": {"molecular_target": "PPFIBP1 (human) (UniProt Q86W92)", "test": "control IP with IgG, lysate of cells with N-FLAG B3GNT2, mass spectrometry"}, "CHCHD3 (human)": {"molecular_target": "CHCHD3 (human) (UniProt Q9NX63)", "test": "control IP with IgG, lysate of cells with N-FLAG B3GNT2, mass spectrometry"}, "RPL28 (human)": {"molecular_target": "RPL28 (human) (UniProt P46779)", "test": "control IP with IgG, lysate of cells with N-FLAG B3GNT2, mass spectrometry"}, "GSN (human)": {"molecular_target": "GSN (human) (UniProt P06396)", "test": "control IP with IgG, lysate of cells with N-FLAG B3GNT2, mass spectrometry"}, "RPL8 (human)": {"molecular_target": "RPL8 (human) (UniProt P62917)", "test": "control IP with IgG, lysate of cells with N-FLAG B3GNT2, mass spectrometry"}, "S100A7 (human)": {"molecular_target": "S100A7 (human) (UniProt P31151)", "test": "control IP with IgG, lysate of cells with N-FLAG B3GNT2, mass spectrometry"}, "YBX1 (human)": {"molecular_target": "YBX1 (human) (UniProt P67809)", "test": "control IP with IgG, lysate of cells with N-FLAG B3GNT2, mass spectrometry"}, "MAP4 (human)": {"molecular_target": "MAP4 (human) (UniProt P27816)", "test": "control IP with IgG, lysate of cells with N-FLAG B3GNT2, mass spectrometry"}, "RPL23 (human)": {"molecular_target": "RPL23 (human) (UniProt P62829)", "test": "control IP with IgG, lysate of cells with N-FLAG B3GNT2, mass spectrometry"}, "KCTD5 (human)": {"molecular_target": "KCTD5 (human) (UniProt Q9NXV2)", "sequence (Q9NXV2 2-234 limits assumed)": "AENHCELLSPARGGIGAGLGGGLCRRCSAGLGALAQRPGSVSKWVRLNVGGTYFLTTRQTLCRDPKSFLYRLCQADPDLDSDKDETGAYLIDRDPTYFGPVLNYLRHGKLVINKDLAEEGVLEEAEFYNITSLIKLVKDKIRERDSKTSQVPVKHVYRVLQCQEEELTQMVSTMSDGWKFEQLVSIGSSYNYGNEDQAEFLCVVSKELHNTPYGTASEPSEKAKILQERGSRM", "test": "control IP with IgG, lysate of cells with N-FLAG B3GNT2, mass spectrometry"}, "LCN1 (human)": {"molecular_target": "LCN1 (human) (UniProt P31025)", "test": "control IP with IgG, lysate of cells with N-FLAG B3GNT2, mass spectrometry"}, "EIF3A (human)": {"molecular_target": "EIF3A (human) (UniProt Q14152)", "test": "control IP with IgG, lysate of cells with N-FLAG B3GNT2, mass spectrometry"}, "PKM (human)": {"molecular_target": "PKM (human) (UniProt P14618)", "sequence (P14618 2-531 limits assumed)": "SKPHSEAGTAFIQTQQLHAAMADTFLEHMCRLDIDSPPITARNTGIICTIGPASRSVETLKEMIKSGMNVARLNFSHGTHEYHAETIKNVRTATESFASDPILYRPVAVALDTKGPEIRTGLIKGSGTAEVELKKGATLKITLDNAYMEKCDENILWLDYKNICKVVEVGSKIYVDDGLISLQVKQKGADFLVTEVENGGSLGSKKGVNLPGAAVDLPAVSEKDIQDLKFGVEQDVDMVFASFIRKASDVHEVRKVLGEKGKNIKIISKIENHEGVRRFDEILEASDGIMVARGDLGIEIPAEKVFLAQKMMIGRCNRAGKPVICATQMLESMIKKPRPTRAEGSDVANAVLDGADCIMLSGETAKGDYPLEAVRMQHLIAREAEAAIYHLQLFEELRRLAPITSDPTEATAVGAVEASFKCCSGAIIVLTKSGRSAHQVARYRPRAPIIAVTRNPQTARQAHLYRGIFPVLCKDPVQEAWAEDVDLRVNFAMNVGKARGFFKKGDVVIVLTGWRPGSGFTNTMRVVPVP", "test": "control IP with IgG, lysate of cells with N-FLAG B3GNT2, mass spectrometry"}, "ELOC (human)": {"molecular_target": "ELOC (human) (UniProt Q15369)", "test": "IgG control IP from lysate of C-FLAG B3GNT2 cells, mass spectrometry"}, "KPNB1 (human)": {"molecular_target": "KPNB1 (human) (UniProt Q14974)", "test": "IgG control IP from lysate of C-FLAG B3GNT2 cells, mass spectrometry"}, "RRBP1 (human)": {"molecular_target": "RRBP1 (human) (UniProt Q9P2E9)", "sequence (Q9P2E9 whole entry)": "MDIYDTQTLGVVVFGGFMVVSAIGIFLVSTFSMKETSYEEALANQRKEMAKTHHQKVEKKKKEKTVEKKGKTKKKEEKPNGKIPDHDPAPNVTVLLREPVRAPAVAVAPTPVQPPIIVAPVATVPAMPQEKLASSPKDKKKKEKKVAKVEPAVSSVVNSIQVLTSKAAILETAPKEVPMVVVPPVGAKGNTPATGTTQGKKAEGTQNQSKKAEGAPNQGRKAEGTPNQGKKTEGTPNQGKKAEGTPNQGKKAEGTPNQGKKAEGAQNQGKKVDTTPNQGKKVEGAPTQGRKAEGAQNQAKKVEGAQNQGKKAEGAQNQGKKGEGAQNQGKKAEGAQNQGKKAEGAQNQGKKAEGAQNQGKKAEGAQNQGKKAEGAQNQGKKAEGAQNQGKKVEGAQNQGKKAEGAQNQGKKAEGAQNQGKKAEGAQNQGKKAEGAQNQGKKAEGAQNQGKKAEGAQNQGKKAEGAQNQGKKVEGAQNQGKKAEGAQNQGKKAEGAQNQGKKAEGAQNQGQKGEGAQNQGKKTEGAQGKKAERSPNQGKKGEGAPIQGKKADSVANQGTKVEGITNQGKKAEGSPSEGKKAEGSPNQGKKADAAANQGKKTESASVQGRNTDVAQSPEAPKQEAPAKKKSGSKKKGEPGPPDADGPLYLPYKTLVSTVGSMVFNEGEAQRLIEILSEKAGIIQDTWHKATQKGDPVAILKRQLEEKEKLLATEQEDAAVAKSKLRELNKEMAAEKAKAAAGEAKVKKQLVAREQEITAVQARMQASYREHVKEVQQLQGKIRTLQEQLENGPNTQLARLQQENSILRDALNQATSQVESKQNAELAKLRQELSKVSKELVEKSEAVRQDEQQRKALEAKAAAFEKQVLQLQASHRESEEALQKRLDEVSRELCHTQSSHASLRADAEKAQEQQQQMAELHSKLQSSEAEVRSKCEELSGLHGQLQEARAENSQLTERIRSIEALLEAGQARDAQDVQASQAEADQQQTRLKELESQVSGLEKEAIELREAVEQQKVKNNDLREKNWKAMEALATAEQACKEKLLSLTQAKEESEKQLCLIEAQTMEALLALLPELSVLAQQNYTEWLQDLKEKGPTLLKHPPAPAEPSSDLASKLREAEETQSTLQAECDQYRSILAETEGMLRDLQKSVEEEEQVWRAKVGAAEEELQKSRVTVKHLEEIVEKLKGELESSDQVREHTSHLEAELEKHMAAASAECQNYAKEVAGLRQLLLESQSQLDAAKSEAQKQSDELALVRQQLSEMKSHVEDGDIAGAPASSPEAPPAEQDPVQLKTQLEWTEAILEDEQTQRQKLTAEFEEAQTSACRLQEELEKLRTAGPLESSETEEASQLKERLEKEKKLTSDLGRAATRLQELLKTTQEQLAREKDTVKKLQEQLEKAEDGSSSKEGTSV", "test": "IgG control IP from lysate of C-FLAG B3GNT2 cells, mass spectrometry"}, "AIFM1 (human)": {"molecular_target": "AIFM1 (human) (UniProt O95831)", "test": "IgG control IP from lysate of C-FLAG B3GNT2 cells, mass spectrometry"}, "FBXO6 (human)": {"molecular_target": "FBXO6 (human) (UniProt Q9NRD1)", "test": "IgG control IP from lysate of C-FLAG B3GNT2 cells, mass spectrometry"}, "IPO7 (human)": {"molecular_target": "IPO7 (human) (UniProt O95373)", "test": "IgG control IP from lysate of C-FLAG B3GNT2 cells, mass spectrometry"}, "STAU1 (human)": {"molecular_target": "STAU1 (human) (UniProt O95793)", "test": "IgG control IP from lysate of C-FLAG B3GNT2 cells, mass spectrometry"}, "ACSL3 (human)": {"molecular_target": "ACSL3 (human) (UniProt O95573)", "test": "IgG control IP from lysate of C-FLAG B3GNT2 cells, mass spectrometry"}, "PDIA4 (human)": {"molecular_target": "PDIA4 (human) (UniProt P13667)", "test": "IgG control IP from lysate of C-FLAG B3GNT2 cells, mass spectrometry"}, "DNAJA3 (human)": {"molecular_target": "DNAJA3 (human) (UniProt Q96EY1)", "sequence (Q96EY1 other isoform, or with tags, fused parts or gaps limits assumed)": "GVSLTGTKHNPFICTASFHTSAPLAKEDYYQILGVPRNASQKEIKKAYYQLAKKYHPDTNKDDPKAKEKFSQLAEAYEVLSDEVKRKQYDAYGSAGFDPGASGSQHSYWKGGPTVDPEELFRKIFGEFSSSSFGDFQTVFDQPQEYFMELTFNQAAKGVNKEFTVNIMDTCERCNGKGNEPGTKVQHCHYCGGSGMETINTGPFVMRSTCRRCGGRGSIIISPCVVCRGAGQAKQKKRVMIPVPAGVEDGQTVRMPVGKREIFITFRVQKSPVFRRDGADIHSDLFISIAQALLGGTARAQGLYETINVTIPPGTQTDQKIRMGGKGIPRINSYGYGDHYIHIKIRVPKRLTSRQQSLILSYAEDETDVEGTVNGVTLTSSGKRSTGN", "test": "IgG control IP from lysate of C-FLAG B3GNT2 cells, mass spectrometry"}, "ZRANB2 (human)": {"molecular_target": "ZRANB2 (human) (UniProt O95218)", "sequence (O95218 other isoform, or with tags, fused parts or gaps limits assumed)": "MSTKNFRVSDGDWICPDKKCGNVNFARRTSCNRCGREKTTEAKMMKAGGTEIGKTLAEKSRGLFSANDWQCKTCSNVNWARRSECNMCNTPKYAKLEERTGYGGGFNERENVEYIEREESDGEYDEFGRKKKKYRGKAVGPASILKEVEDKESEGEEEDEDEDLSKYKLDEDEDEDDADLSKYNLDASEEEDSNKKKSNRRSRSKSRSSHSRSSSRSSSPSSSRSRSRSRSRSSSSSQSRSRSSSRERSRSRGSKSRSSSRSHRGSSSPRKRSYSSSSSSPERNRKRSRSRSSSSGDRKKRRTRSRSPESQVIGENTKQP", "test": "IgG control IP from lysate of C-FLAG B3GNT2 cells, mass spectrometry"}, "RPS6 (human)": {"molecular_target": "RPS6 (human) (UniProt P62753)", "test": "IgG control IP from lysate of C-FLAG B3GNT2 cells, mass spectrometry"}, "PXN (human)": {"molecular_target": "PXN (human) (UniProt P49023)", "test": "IgG control IP from lysate of C-FLAG B3GNT2 cells, mass spectrometry"}, "TECR (human)": {"molecular_target": "TECR (human) (UniProt Q9NZ01)", "sequence (Q9NZ01 whole entry)": "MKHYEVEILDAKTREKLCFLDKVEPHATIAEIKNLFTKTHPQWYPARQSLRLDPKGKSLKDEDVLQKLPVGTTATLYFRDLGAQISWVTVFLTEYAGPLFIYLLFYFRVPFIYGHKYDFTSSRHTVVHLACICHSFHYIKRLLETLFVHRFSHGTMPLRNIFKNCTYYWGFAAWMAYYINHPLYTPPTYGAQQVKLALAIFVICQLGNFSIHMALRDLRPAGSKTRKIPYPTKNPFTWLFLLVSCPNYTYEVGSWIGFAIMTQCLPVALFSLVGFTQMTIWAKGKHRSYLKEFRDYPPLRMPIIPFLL", "test": "IgG control IP from lysate of C-FLAG B3GNT2 cells, mass spectrometry"}, "PSMB6 (human)": {"molecular_target": "PSMB6 (human) (UniProt P28072)", "test": "IgG control IP from lysate of C-FLAG B3GNT2 cells, mass spectrometry"}, "HDGFL2 (human)": {"molecular_target": "HDGFL2 (human) (UniProt Q7Z4V5)", "test": "IgG control IP from lysate of C-FLAG B3GNT2 cells, mass spectrometry"}, "PSMA5 (human)": {"molecular_target": "PSMA5 (human) (UniProt P28066)", "test": "IgG control IP from lysate of C-FLAG B3GNT2 cells, mass spectrometry"}},
  "data": [
    {"substance": "IgG control (Millipore Sigma 12-371) (antibody)", "values": [
      {"measurement": "co-IP mass spectrometry count", "setting": "IL13RA2 (human)", "value": 0},
      {"measurement": "co-IP mass spectrometry count", "setting": "LGALS7B (human)", "value": 4},
      {"measurement": "co-IP mass spectrometry count", "setting": "HNRNPM (human)", "value": 5},
      {"measurement": "co-IP mass spectrometry count", "setting": "DDX1 (human)", "value": 2},
      {"measurement": "co-IP mass spectrometry count", "setting": "RPL38 (human)", "value": 5},
      {"measurement": "co-IP mass spectrometry count", "setting": "TPM3 (human)", "value": 5},
      {"measurement": "co-IP mass spectrometry count", "setting": "GEMIN4 (human)", "value": 0},
      {"measurement": "co-IP mass spectrometry count", "setting": "GBF1 (human)", "value": 0},
      {"measurement": "co-IP mass spectrometry count", "setting": "DHX9 (human)", "value": 0},
      {"measurement": "co-IP mass spectrometry count", "setting": "PPFIBP1 (human)", "value": 0},
      {"measurement": "co-IP mass spectrometry count", "setting": "CHCHD3 (human)", "value": 10},
      {"measurement": "co-IP mass spectrometry count", "setting": "RPL28 (human)", "value": 3},
      {"measurement": "co-IP mass spectrometry count", "setting": "GSN (human)", "value": 0},
      {"measurement": "co-IP mass spectrometry count", "setting": "RPL8 (human)", "value": 3},
      {"measurement": "co-IP mass spectrometry count", "setting": "S100A7 (human)", "value": 2},
      {"measurement": "co-IP mass spectrometry count", "setting": "YBX1 (human)", "value": 3},
      {"measurement": "co-IP mass spectrometry count", "setting": "MAP4 (human)", "value": 0},
      {"measurement": "co-IP mass spectrometry count", "setting": "RPL23 (human)", "value": 5},
      {"measurement": "co-IP mass spectrometry count", "setting": "KCTD5 (human)", "value": 0},
      {"measurement": "co-IP mass spectrometry count", "setting": "LCN1 (human)", "value": 9},
      {"measurement": "co-IP mass spectrometry count", "setting": "EIF3A (human)", "value": 3},
      {"measurement": "co-IP mass spectrometry count", "setting": "PKM (human)", "value": 2},
      {"measurement": "co-IP mass spectrometry count", "setting": "ELOC (human)", "value": 0},
      {"measurement": "co-IP mass spectrometry count", "setting": "KPNB1 (human)", "value": 0},
      {"measurement": "co-IP mass spectrometry count", "setting": "RRBP1 (human)", "value": 2},
      {"measurement": "co-IP mass spectrometry count", "setting": "AIFM1 (human)", "value": 0},
      {"measurement": "co-IP mass spectrometry count", "setting": "FBXO6 (human)", "value": 0},
      {"measurement": "co-IP mass spectrometry count", "setting": "IPO7 (human)", "value": 0},
      {"measurement": "co-IP mass spectrometry count", "setting": "STAU1 (human)", "value": 0},
      {"measurement": "co-IP mass spectrometry count", "setting": "ACSL3 (human)", "value": 0},
      {"measurement": "co-IP mass spectrometry count", "setting": "PDIA4 (human)", "value": 0},
      {"measurement": "co-IP mass spectrometry count", "setting": "DNAJA3 (human)", "value": 0},
      {"measurement": "co-IP mass spectrometry count", "setting": "ZRANB2 (human)", "value": 0},
      {"measurement": "co-IP mass spectrometry count", "setting": "RPS6 (human)", "value": 2},
      {"measurement": "co-IP mass spectrometry count", "setting": "PXN (human)", "value": 0},
      {"measurement": "co-IP mass spectrometry count", "setting": "TECR (human)", "value": 0},
      {"measurement": "co-IP mass spectrometry count", "setting": "PSMB6 (human)", "value": 0},
      {"measurement": "co-IP mass spectrometry count", "setting": "HDGFL2 (human)", "value": 0},
      {"measurement": "co-IP mass spectrometry count", "setting": "PSMA5 (human)", "value": 0}
    ]}
  ]
}
